Laboratory results as given in the Human Domainome abundance scans (Beltran et al. 2025).
± gives the uncertainty stated by the source.

B1: TOX high mobility group box family member 3, residues 256 to 323; numbered along this chain, O15405 (parent)
chain: QKPVSAYALFFRDTQAAIKGQNPNATFGEVSKIVASMWDSLGEEQKQVYKRKTEAAKKEYLKALAAYR

Variants of: B1
Test: abundance fitness (aPCA) (normalised: wild type 0, dead -1); higher = more abundant; growth selection in yeast, the domain comes from the species named
Conditions: Homo sapiens
Work on R12Y yielded an abundance fitness of -0.135 ± 0.19.
In the case of R12T, the abundance fitness is reported as -0.146 ± 0.11.
R12C showed an abundance fitness of -0.457 ± 0.16.
Q15E showed an abundance fitness of -0.065 ± 0.066.
For Q15V, the abundance fitness was -0.173 ± 0.057.
Work on Q15F yielded an abundance fitness of 0.022 ± 0.086.
Work on Q15S yielded an abundance fitness of -0.538 ± 0.18.
With W38I the abundance fitness was -1.2 ± 0.42.
In the case of L9W, the abundance fitness is reported as -0.218 ± 0.11.
In the case of L9F, the abundance fitness is reported as -0.31 ± 0.11.
With L9H the abundance fitness was -0.394 ± 0.19.
Variant L9I has an abundance fitness of 0.233 ± 0.13.
For L9R, the abundance fitness was -0.498 ± 0.1.
L9K gave an abundance fitness of -0.425 ± 0.13.
Variant L9A has an abundance fitness of -0.042 ± 0.064.
Variant L9P has an abundance fitness of -1.08 ± 0.39.
In the case of L9C, the abundance fitness is reported as -0.106 ± 0.1.
Work on A25L yielded an abundance fitness of -0.155 ± 0.07.
With A56Q the abundance fitness was -0.017 ± 0.07.
In the case of A56M, the abundance fitness is reported as -0.063 ± 0.1.
A56L gave an abundance fitness of -0.109 ± 0.037.
A56P showed an abundance fitness of -0.233 ± 0.086.
With F11V the abundance fitness was -0.14 ± 0.07.
F11M gave an abundance fitness of -0.101 ± 0.071.
In the case of F11Q, the abundance fitness is reported as -0.171 ± 0.14.
F11A gave an abundance fitness of -0.19 ± 0.068.
For F11L, the abundance fitness was -0.176 ± 0.069.
For K2P, the abundance fitness was -0.267 ± 0.085.
With K2N the abundance fitness was -0.005 ± 0.1.
In the case of K2S, the abundance fitness is reported as 0.069 ± 0.05.
With K2E the abundance fitness was -0.464 ± 0.11.
For K2L, the abundance fitness was -0.428 ± 0.066.
Variant K2F has an abundance fitness of -0.083 ± 0.13.
With K2A the abundance fitness was -0.264 ± 0.076.
Variant K19A has an abundance fitness of -0.051 ± 0.063.
With K19R the abundance fitness was -0.102 ± 0.06.
Variant A8K has an abundance fitness of 0.009 ± 0.074.
In the case of A8M, the abundance fitness is reported as 0.219 ± 0.056.
In the case of A8I, the abundance fitness is reported as -0.477 ± 0.19.
In the case of A8Q, the abundance fitness is reported as 0.09 ± 0.081.
Work on A8D yielded an abundance fitness of 0.039 ± 0.15.
With L61D the abundance fitness was 0.319 ± 0.085.
With L61I the abundance fitness was -0.029 ± 0.062.
Work on L61K yielded an abundance fitness of 0.247 ± 0.076.
Work on L61G yielded an abundance fitness of 0.08 ± 0.11.
Work on L61W yielded an abundance fitness of -0.19 ± 0.08.
For L61Q, the abundance fitness was 0.146 ± 0.16.
For L61V, the abundance fitness was 0.119 ± 0.059.
Variant L61Y has an abundance fitness of -0.087 ± 0.099.
In the case of V30S, the abundance fitness is reported as -0.635 ± 0.099.
V30I showed an abundance fitness of 0.014 ± 0.11.
V30C showed an abundance fitness of -0.309 ± 0.091.
With V30R the abundance fitness was -0.43 ± 0.062.
V30K showed an abundance fitness of -0.702 ± 0.15.
Work on V30A yielded an abundance fitness of -0.896 ± 0.28.
Work on V30H yielded an abundance fitness of -0.823 ± 0.21.
L64T showed an abundance fitness of 0.236 ± 0.056.
L64G gave an abundance fitness of 0.241 ± 0.05.
For S5G, the abundance fitness was -0.091 ± 0.052.
In the case of K32P, the abundance fitness is reported as -0.966 ± 0.16.
In the case of K32T, the abundance fitness is reported as -0.055 ± 0.065.
For K32M, the abundance fitness was -0.198 ± 0.069.
With K32H the abundance fitness was -0.286 ± 0.075.
Work on K32S yielded an abundance fitness of -0.107 ± 0.053.
With K32Q the abundance fitness was -0.337 ± 0.097.
K32I showed an abundance fitness of -0.416 ± 0.14.
With V34I the abundance fitness was -0.149 ± 0.09.
For V34C, the abundance fitness was -0.137 ± 0.093.
In the case of V34M, the abundance fitness is reported as -0.443 ± 0.092.
For V34A, the abundance fitness was -0.012 ± 0.05.
In the case of V34K, the abundance fitness is reported as -0.922 ± 0.2.
Work on V34W yielded an abundance fitness of -0.92 ± 0.15.
Work on E54M yielded an abundance fitness of -0.161 ± 0.064.
With E54P the abundance fitness was -0.118 ± 0.055.
E54D showed an abundance fitness of -0.054 ± 0.068.
Work on E54S yielded an abundance fitness of -0.211 ± 0.052.
Work on E54F yielded an abundance fitness of -0.193 ± 0.072.
A65D gave an abundance fitness of 0.078 ± 0.084.
In the case of A65H, the abundance fitness is reported as -0.081 ± 0.12.
Work on A65W yielded an abundance fitness of -0.082 ± 0.079.
Variant A65G has an abundance fitness of 0.067 ± 0.047.
Variant A65R has an abundance fitness of -0.037 ± 0.059.
Variant K46G has an abundance fitness of -0.8 ± 0.075.
